T1: ZNFN3A1 (SMYD3) (Homo sapiens, UniProt Q9H7B4 SEQ:1-428)
T1 chain: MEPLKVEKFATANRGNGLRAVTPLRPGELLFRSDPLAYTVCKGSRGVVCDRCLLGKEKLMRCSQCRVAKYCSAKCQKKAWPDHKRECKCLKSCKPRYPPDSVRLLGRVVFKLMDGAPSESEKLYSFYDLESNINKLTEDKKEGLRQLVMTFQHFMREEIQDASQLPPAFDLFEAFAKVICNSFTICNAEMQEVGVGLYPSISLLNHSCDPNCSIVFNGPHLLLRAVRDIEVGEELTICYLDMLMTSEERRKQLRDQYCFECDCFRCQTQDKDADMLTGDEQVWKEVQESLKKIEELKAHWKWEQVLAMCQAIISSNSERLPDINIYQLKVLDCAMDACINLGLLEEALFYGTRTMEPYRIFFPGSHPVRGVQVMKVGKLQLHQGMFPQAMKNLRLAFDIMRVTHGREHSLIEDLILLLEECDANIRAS

B1: wtTBM (Tcf4-binding motif) (dsDNA)
DNA 1: CCCTTTGATCTTACC
DNA 2: GGTAAGATCAAAGGG
B2: ZBE2 (Nkx2.8 ZNFN3A1-binding element) (dsDNA)
DNA 1: TTACGCCCTCCTGAAACTTGTCATCCTGAATCTTAGAGGGGCCC
DNA 2: GGGCCCCTCTAAGATTCAGGATGACAAGTTTCAGGAGGGCGTAA

Columns and labels:
ZNFN3A1 (SMYD3) [1] = target: T1, ZNFN3A1 (SMYD3); assay: specificity control; details: tags: GST fusion, E. coli
GST = GST (UniProt P08515 P08515:1-218); assay: GST control
Sequence of GST (P08515 whole entry, the tested form may be a part, one chain of several): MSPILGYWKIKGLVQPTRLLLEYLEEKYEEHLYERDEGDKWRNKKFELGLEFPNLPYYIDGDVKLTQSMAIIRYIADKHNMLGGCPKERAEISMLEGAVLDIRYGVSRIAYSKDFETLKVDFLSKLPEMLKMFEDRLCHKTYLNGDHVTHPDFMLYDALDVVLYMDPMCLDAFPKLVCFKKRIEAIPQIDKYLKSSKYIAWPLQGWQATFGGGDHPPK

Tcf4 wild-type = Tcf4 wild-type (UniProt Q9NQB0 Q9NQB0:1-619); assay: positive control; details: tags: GST fusion
Sequence of Tcf4 wild-type (Q9NQB0 whole entry, the tested form may be a part, one chain of several): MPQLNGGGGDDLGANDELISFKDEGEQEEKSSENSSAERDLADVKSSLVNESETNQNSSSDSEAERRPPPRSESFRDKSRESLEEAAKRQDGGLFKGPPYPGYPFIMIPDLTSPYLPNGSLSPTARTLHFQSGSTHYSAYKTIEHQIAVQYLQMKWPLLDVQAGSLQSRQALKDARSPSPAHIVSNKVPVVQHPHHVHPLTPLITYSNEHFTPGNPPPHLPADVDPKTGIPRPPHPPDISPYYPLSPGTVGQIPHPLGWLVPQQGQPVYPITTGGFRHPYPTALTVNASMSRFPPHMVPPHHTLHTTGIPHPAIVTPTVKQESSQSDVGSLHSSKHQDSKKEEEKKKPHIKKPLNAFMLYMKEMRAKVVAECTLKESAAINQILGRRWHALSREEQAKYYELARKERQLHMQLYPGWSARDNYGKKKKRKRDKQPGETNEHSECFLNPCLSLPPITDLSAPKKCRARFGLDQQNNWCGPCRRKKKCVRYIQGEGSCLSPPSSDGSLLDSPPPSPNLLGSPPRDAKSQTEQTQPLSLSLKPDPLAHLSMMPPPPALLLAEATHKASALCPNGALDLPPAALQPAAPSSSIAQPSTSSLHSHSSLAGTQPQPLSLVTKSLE

ZNFN3A1 (SMYD3) [2] = target: T1, ZNFN3A1 (SMYD3); assay: in vitro binding assay; inhibited by cold competitor DNA; details: tags: GST fusion, E. coli

Binder | binding result (ZNFN3A1 (SMYD3) [1]) | binding result (GST) | binding result (Tcf4 wild-type) | binding result (ZNFN3A1 (SMYD3) [2])
B1 | no binding | no binding | binds | 
B2 |  | no binding |  | binds

— patent US8221993, “Methods of detecting methyl transferase activity and methods of screening for methyl transferase activity modulators” (Onco Therapy Science, Inc.)
